One assay addresses UbcH7 K96S (UniProt P68036 1-154, K96S). In words: ITC.
The next assay addresses UbcH7 wild type (UniProt P68036 1-154). As to the kind of experiment: ITC.

B1: HHARI^ΔHG (protein)
chain: MDSDEGYNYEFDEDEECSEEDSGAEEEEDEDDDEPDDDTLDLGEVELVEPGLGVGGERDGLLCGETGGGGGSALGPGGGGGGGGGGGGGGPGHEQEEDYRYEVLTAEQILQHMVECIREVNEVIQNPATITRILLSHFNWDKEKLMERYFDGNLEKLFAECHVINPSKKSRTRQMNTRSSAQDMPCQICYLNYPNSYFTGLECGHKFCMQCWSEYLTTKIMEEGMGQTISCPACDILVDDNTVMRLITDSKVKLKYQHLITNSFVECNRLLKWCPAPDCHHVVKVQYPDAKPVRCKCGRQFCFNCGENWHDPVKCKWLKKWIKKCDDDSETSNWIAANTKECPKCHVTIEKDGGCNHMVCRNQNCKAEFCWVCLGPWEPHGSAWYNCNRYNEDDAKAA
As for B1, the results for the Kd in the assay with UbcH7 K96S and with UbcH7 wild type were 15.7 µM and 0.965 µM, respectively.

Source of the values: PMC5548887 (2017).
